# Source: PMC2912425 (Biochemistry, 2010)
# T1: 6xHis Grsp1_(2-400) (mouse, UniProt Q920B0-2 2-400)
# T1 sequence (looked up): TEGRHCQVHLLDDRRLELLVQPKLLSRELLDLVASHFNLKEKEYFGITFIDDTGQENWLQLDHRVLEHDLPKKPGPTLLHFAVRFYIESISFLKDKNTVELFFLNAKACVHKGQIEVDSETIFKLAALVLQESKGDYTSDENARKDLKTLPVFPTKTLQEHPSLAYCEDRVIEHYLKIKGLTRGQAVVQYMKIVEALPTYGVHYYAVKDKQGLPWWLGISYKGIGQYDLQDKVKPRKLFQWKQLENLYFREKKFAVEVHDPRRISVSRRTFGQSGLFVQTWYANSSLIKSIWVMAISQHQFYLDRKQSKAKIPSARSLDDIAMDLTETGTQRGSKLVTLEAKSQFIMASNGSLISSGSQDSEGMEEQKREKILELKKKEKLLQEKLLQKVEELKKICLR
# Key:
# 6xHis Grsp1_(2-400) = target: T1, 6xHis Grsp1_(2-400); test: SEC
# SEC = target: the molecule itself; test: SEC
# AUC = target: the molecule itself; test: AUC
percent of Grsp1_(2-400) bound (6xHis Grsp1_(2-400)) [%],Binder,stoichiometry N (SEC),stoichiometry N (AUC)
> 90,"6xHis Grp1_(13-248) (domain or fragment, mouse, UniProt O08967 13-248, looked up) PEDLSLEEREELLDIRRRKKELIDDIERLKYEIAEVMTEIDNLTSVEESKTTQRNKQIAMGRKKFNMDPKKGIQFLIENDLLQSSPEDVAQFLYKGEGLNKTVIGDYLGERDDFNIKVLQAFVELHEFADLNLVQALRQFLWSFRLPGEAQKIDRMMEAFASRYCLCNPGVFQSTDTCYVLSFAIIMLNTSLHNHNVRDKPTAERFITMNRGINEGGDLPEELLRNLYESIKNEPF",2,
,"6xHis ARNO_(2-252) (domain or fragment, human, UniProt Q99418 2-252, looked up) EDGVYEPPDLTPEERMELENIRRRKQELLVEIQRLREELSEAMSEVEGLEANEGSKTLQRNRKMAMGRKKFNMDPKKGIQFLVENELLQNTPEEIARFLYKGEGLNKTAIGDYLGEREELNLAVLHAFVDLHEFTDLNLVQALRQFLWSFRLPGEAQKIDRMMEAFAQRYCLCNPGVFQSTDTCYVLSFAVIMLNTSLHNPNVRDKPGLERFVAMNRGINEGGDLPEELLRNLYDSIRNEPFKIPEDDGND",,2
> 90,"6xHis Cytohesin-1_(2-244) (domain or fragment, human, UniProt Q15438 2-244, looked up) EEDDSYVPSDLTAEERQELENIRRRKQELLADIQRLKDEIAEVANEIENLGSTEERKNMQRNKQVAMGRKKFNMDPKKGIQFLIENDLLKNTCEDIAQFLYKGEGLNKTAIGDYLGERDEFNIQVLHAFVELHEFTDLNLVQALRQFLWSFRLPGEAQKIDRMMEAFAQRYCQCNNGVFQSTDTCYVLSFAIIMLNTSLHNPNVKDKPTVERFIAMNRGINDGGDLPEELLRNLYESIKNEPF",,
